Assay results as given in IntAct's records for PubMed 16951355.

B1: ICOS ligand (Homo sapiens), O75144 (parent)
chain: MRLGSPGLLFLLFSSLRADTQEKEVRAMVGSDVELSCACPEGSRFDLNDVYVYWQTSESKTVVTYHIPQNSSLENVDSRYRNRALMSPAGMLRGDFSLRLFNVTPQDEQKFHCLVLSQSLGFQEVLSVEVTLHVAANFSVPVVSAPHSPSQDELTFTCTSINGYPRPNVYWINKTDNSLLDQALQNDTVFLNMRGLYDVVSVLRIARTPSVNIGCCIENVLLQQNLTVGSQTGNDIGERDKITENPVSTGEKNAATWSILAVLCLLVVVAVAIGWVCRDRCLQHSYAGAWAVSPETELTGHV

Variants of: B1
Details: with icos_human ICOS

Row | Variant | effect of a mutation on the interaction
1 | MRLGSPGLLFLLFSSLRADTQEKEVRAMVGSDVELSCACPEGSRFDLNDVYVYWQTSESKTVVTYHIPQNSSLENVDSRARNRALMSPAGMLRGDFSLRLFNVTPQDEQKFHCLVLSQSLGFQEVLSVEVTLHVAANFSVPVVSAPHSPSQDELTFTCTSINGYPRPNVYWINKTDNSLLDQALQNDTVFLNMRGLYDVVSVLRIARTPSVNIGCCIENVLLQQNLTVGSQTGNDIGERDKITENPVSTGEKNAATWSILAVLCLLVVVAVAIGWVCRDRCLQHSYAGAWAVSPETELTGHV [Y80A] | disrupting interaction strength
2 | MRLGSPGLLFLLFSSLRADTQEKEVRAMVGSDVELSCACPEGSRFDLNDVYVAWQTSESKTVVTYHIPQNSSLENVDSRYRNRALMSPAGMLRGDFSLRLFNVTPQDEQKFHCLVLSQSLGFQEVLSVEVTLHVAANFSVPVVSAPHSPSQDELTFTCTSINGYPRPNVYWINKTDNSLLDQALQNDTVFLNMRGLYDVVSVLRIARTPSVNIGCCIENVLLQQNLTVGSQTGNDIGERDKITENPVSTGEKNAATWSILAVLCLLVVVAVAIGWVCRDRCLQHSYAGAWAVSPETELTGHV [Y53A] | disrupting interaction strength
3 | MRLGSPGLLFLLFSSLRADTQEKEVRAMVGSDVELSCACPEGSRFDLNDVYVYWQTSESKTAVTYHIPQNSSLENVDSRYRNRALMSPAGMLRGDFSLRLFNVTPQDEQKFHCLVLSQSLGFQEVLSVEVTLHVAANFSVPVVSAPHSPSQDELTFTCTSINGYPRPNVYWINKTDNSLLDQALQNDTVFLNMRGLYDVVSVLRIARTPSVNIGCCIENVLLQQNLTVGSQTGNDIGERDKITENPVSTGEKNAATWSILAVLCLLVVVAVAIGWVCRDRCLQHSYAGAWAVSPETELTGHV [V62A] | decreasing interaction strength
4 | MRLGSPGLLFLLFSSLRADTQEKEVRAMVGSDVELSCACPEGSRFDLNDVYVYWQTSESKTVVTYHIPQNSSLENVDSRYRNRALMSPAGMLRGDFSLRLFQVTPQDEQKFHCLVLSQSLGFQEVLSVEVTLHVAANFSVPVVSAPHSPSQDELTFTCTSINGYPRPNVYWINKTDNSLLDQALQNDTVFLNMRGLYDVVSVLRIARTPSVNIGCCIENVLLQQNLTVGSQTGNDIGERDKITENPVSTGEKNAATWSILAVLCLLVVVAVAIGWVCRDRCLQHSYAGAWAVSPETELTGHV [N102Q] | decreasing interaction strength
5 | MRLGSPGLLFLLFSSLRADTQEKEVRAMVGSDVELSCACPEGSRFDLNDVYVYWQTSESKTVVTYHIPQNSSLENADSRYRNRALMSPAGMLRGDFSLRLFNVTPQDEQKFHCLVLSQSLGFQEVLSVEVTLHVAANFSVPVVSAPHSPSQDELTFTCTSINGYPRPNVYWINKTDNSLLDQALQNDTVFLNMRGLYDVVSVLRIARTPSVNIGCCIENVLLQQNLTVGSQTGNDIGERDKITENPVSTGEKNAATWSILAVLCLLVVVAVAIGWVCRDRCLQHSYAGAWAVSPETELTGHV [V76A] | decreasing interaction strength
6 | MRLGSPGLLFLLFSSLRADTQEKEVRAMVGSDVELSCACPEGSRFDLNDVFVYWQTSESKTVVTYHIPQNSSLENVDSRYRNRALMSPAGMLRGDFSLRLFNVTPQDEQKFHCLVLSQSLGFQEVLSVEVTLHVAANFSVPVVSAPHSPSQDELTFTCTSINGYPRPNVYWINKTDNSLLDQALQNDTVFLNMRGLYDVVSVLRIARTPSVNIGCCIENVLLQQNLTVGSQTGNDIGERDKITENPVSTGEKNAATWSILAVLCLLVVVAVAIGWVCRDRCLQHSYAGAWAVSPETELTGHV [Y51F] | decreasing interaction strength
7 | MRLGSPGLLFLLFSSLRADTQEKEVRAMVGSDVELSCACPEGSRFDLNDVYVYWQTSESKTVVAYHIPQNSSLENVDSRYRNRALMSPAGMLRGDFSLRLFNVTPQDEQKFHCLVLSQSLGFQEVLSVEVTLHVAANFSVPVVSAPHSPSQDELTFTCTSINGYPRPNVYWINKTDNSLLDQALQNDTVFLNMRGLYDVVSVLRIARTPSVNIGCCIENVLLQQNLTVGSQTGNDIGERDKITENPVSTGEKNAATWSILAVLCLLVVVAVAIGWVCRDRCLQHSYAGAWAVSPETELTGHV [T64A] | with no effect
8 | MRLGSPGLLFLLFSSLRADTQEKEVRAMVGSDVELSCACPEGSRFDLNDVYVYWQTSESKTVVTYAIPQNSSLENVDSRYRNRALMSPAGMLRGDFSLRLFNVTPQDEQKFHCLVLSQSLGFQEVLSVEVTLHVAANFSVPVVSAPHSPSQDELTFTCTSINGYPRPNVYWINKTDNSLLDQALQNDTVFLNMRGLYDVVSVLRIARTPSVNIGCCIENVLLQQNLTVGSQTGNDIGERDKITENPVSTGEKNAATWSILAVLCLLVVVAVAIGWVCRDRCLQHSYAGAWAVSPETELTGHV [H66A] | decreasing interaction strength
9 | MRLGSPGLLFLLFSSLRADTQEKEVRAMVGSDVELSCACPEGSRFDLNDVYVYWQTSESKAVVTYHIPQNSSLENVDSRYRNRALMSPAGMLRGDFSLRLFNVTPQDEQKFHCLVLSQSLGFQEVLSVEVTLHVAANFSVPVVSAPHSPSQDELTFTCTSINGYPRPNVYWINKTDNSLLDQALQNDTVFLNMRGLYDVVSVLRIARTPSVNIGCCIENVLLQQNLTVGSQTGNDIGERDKITENPVSTGEKNAATWSILAVLCLLVVVAVAIGWVCRDRCLQHSYAGAWAVSPETELTGHV [T61A] | with no effect

Next, values leading:

Row | effect of a mutation on the interaction | Variant
10 | with no effect | MRLGSPGLLFLLFSSLRADTQEKEVRAMVGSDVELSCACPEGSRFDLNDVYVYWQTSESKTVVTYHIPQNSSLENVDSRYRNRALMSPAGMLRGDFSLRLFNVTPQDEQKFHCLVLSQSLGFQEVLSVEVTLHVAANFSVPVVSAPHSPSQDELTFTCTSINGYPRPNVYWINKTDNSLLDQALQNDTVFLNMRGAYDVVSVLRIARTPSVNIGCCIENVLLQQNLTVGSQTGNDIGERDKITENPVSTGEKNAATWSILAVLCLLVVVAVAIGWVCRDRCLQHSYAGAWAVSPETELTGHV [L196A]
11 | decreasing interaction strength | MRLGSPGLLFLLFSSLRADTQEKEVRAMVGSDVELSCACPEGSRFDLNDVYVYWQTSESKTVVTYHIPQNSSLENVDSRYRNRALMSPAGMLRGDFSLRLFNVTPQDEQKFHCLVLSQSLGFQAVLSVEVTLHVAANFSVPVVSAPHSPSQDELTFTCTSINGYPRPNVYWINKTDNSLLDQALQNDTVFLNMRGLYDVVSVLRIARTPSVNIGCCIENVLLQQNLTVGSQTGNDIGERDKITENPVSTGEKNAATWSILAVLCLLVVVAVAIGWVCRDRCLQHSYAGAWAVSPETELTGHV [E124A]
12 | with no effect | MRLGSPGLLFLLFSSLRADTQEKEVRAMVGSDVELSCACPEGSRFDLNDVYVYWQTSESKTVVTYHIPQNSSLENVDSRYRNRALMSPAGMLRGDFSLRLFNVTPQDEQKFHCLVLSQSLGFAEVLSVEVTLHVAANFSVPVVSAPHSPSQDELTFTCTSINGYPRPNVYWINKTDNSLLDQALQNDTVFLNMRGLYDVVSVLRIARTPSVNIGCCIENVLLQQNLTVGSQTGNDIGERDKITENPVSTGEKNAATWSILAVLCLLVVVAVAIGWVCRDRCLQHSYAGAWAVSPETELTGHV [Q123A]
13 | decreasing interaction strength | MRLGSPGLLFLLFSSLRADTQEKEVRAMVGSDVELSCACPEGSRFDLNDVYVYWQTSESKTVVTYHIPQNSSLENVDSRYRNRALMSPAGMLRGDFSLRLFNVTPQDEQKFHCLVLSQSAGFQEVLSVEVTLHVAANFSVPVVSAPHSPSQDELTFTCTSINGYPRPNVYWINKTDNSLLDQALQNDTVFLNMRGLYDVVSVLRIARTPSVNIGCCIENVLLQQNLTVGSQTGNDIGERDKITENPVSTGEKNAATWSILAVLCLLVVVAVAIGWVCRDRCLQHSYAGAWAVSPETELTGHV [L120A]
14 | with no effect | MRLGSPGLLFLLFSSLRADTQEKEVRAMVGSDVELSCACPEGSRFDLNDVYVYWQTSESKTVVTYHIPQNSSLENVDSRYRNRALMSPAGMLRGDFSLRLFNVTPQDEQKFHCLVLSQSLAFQEVLSVEVTLHVAANFSVPVVSAPHSPSQDELTFTCTSINGYPRPNVYWINKTDNSLLDQALQNDTVFLNMRGLYDVVSVLRIARTPSVNIGCCIENVLLQQNLTVGSQTGNDIGERDKITENPVSTGEKNAATWSILAVLCLLVVVAVAIGWVCRDRCLQHSYAGAWAVSPETELTGHV [G121A]
15 | with no effect | MRLGSPGLLFLLFSSLRADTQEKEVRAMVGSDVELSCACPEGSRFDLNDVYVYWQTSESKTVVTYHIPQNSSLENVDSRYRNRALMSPAGMLRGDFSLRLFNVTPQDEQKFHCLVLSQSLGFQEVLSVEVTLHVAANFSVPVVSAPHSPSQDELTFTCTSINGYPRPNVYWINKTDNSLLDQALQNDTVFLNMRGLYDVVSVLRIARTPSVNIGCCIENVLLQQQLTVGSQTGNDIGERDKITENPVSTGEKNAATWSILAVLCLLVVVAVAIGWVCRDRCLQHSYAGAWAVSPETELTGHV [N225Q]
16 | with no effect | MRLGSPGLLFLLFSSLRADTQEKEVRAMVGSDVELSCACPEGSRFDLNDVYVYWQTSESKTVVTYHIPQNSSLENVDSRYRNRALMSPAGMLRGDFSLRLFNVTPQDEQKFHCLVLSQSLGFQEVLSVEVTLHVAANFSVPVVSAPHSPSQDELTFTCTSINGYPRPNVYWINKTDNSLLDQALQNDTVFLNMRALYDVVSVLRIARTPSVNIGCCIENVLLQQNLTVGSQTGNDIGERDKITENPVSTGEKNAATWSILAVLCLLVVVAVAIGWVCRDRCLQHSYAGAWAVSPETELTGHV [G195A]
17 | with no effect | MRLGSPGLLFLLFSSLRADTQEKEVRAMVGSDVELSCACPEGSRFDLNDVYVYWQTSESKTVVTYHIPQNSSLENVDSRYRNRALMSPAGMLRGDFSLRLFNVTPQDEQKFHCLVLSQSLGFQEVLSVEVTLHVAANASVPVVSAPHSPSQDELTFTCTSINGYPRPNVYWINKTDNSLLDQALQNDTVFLNMRGLYDVVSVLRIARTPSVNIGCCIENVLLQQNLTVGSQTGNDIGERDKITENPVSTGEKNAATWSILAVLCLLVVVAVAIGWVCRDRCLQHSYAGAWAVSPETELTGHV [F138A]
18 | decreasing interaction strength | MRLGSPGLLFLLFSSLRADTQEKEVRAMVGSDVELSCACPEGSRFDLNDVYVYWQTSESKTVVTYHIPQNSSLENVDSRYRNRALMSPAGMLRGDFSLRLFNVTPQDEQKFHCAVLSQSLGFQEVLSVEVTLHVAANFSVPVVSAPHSPSQDELTFTCTSINGYPRPNVYWINKTDNSLLDQALQNDTVFLNMRGLYDVVSVLRIARTPSVNIGCCIENVLLQQNLTVGSQTGNDIGERDKITENPVSTGEKNAATWSILAVLCLLVVVAVAIGWVCRDRCLQHSYAGAWAVSPETELTGHV [L114A]
